Laboratory results taken from paper PMC10786891, “Massively parallel profiling of RNA-targeting CRISPR-Cas13d”.

T1: EsCas13d, nuclease-dead (Eubacterium siraeum, UniProt B0MS50, R295A;H300A;R849A;H854A)
T1 sequence: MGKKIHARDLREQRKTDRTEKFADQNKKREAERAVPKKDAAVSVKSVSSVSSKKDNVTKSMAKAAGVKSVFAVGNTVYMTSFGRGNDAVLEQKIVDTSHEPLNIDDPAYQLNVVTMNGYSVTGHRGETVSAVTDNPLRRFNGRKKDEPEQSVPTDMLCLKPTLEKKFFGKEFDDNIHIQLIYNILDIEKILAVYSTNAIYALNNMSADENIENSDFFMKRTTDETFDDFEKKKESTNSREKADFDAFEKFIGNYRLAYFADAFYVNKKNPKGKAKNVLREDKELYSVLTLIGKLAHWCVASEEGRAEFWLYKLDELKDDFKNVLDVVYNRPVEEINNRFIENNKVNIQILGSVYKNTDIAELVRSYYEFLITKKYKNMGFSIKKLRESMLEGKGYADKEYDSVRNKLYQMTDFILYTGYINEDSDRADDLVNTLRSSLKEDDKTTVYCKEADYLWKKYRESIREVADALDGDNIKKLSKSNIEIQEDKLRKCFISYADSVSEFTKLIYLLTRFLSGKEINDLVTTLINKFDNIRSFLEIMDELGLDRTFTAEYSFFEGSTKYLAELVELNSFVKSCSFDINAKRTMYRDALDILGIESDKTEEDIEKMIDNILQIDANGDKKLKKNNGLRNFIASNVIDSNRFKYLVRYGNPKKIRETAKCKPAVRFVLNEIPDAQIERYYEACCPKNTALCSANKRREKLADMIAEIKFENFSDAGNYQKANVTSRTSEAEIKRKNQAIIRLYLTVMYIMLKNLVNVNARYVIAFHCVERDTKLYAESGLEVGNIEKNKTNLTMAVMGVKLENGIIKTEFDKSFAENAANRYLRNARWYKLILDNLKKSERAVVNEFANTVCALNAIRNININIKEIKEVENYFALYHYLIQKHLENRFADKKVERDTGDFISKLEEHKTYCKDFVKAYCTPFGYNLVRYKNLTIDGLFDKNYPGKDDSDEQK


Biological target: T1, EsCas13d, nuclease-dead
Assay: crRNA (strand 1, pre-loaded); Mg2+; 40 mM Tris-HCl pH 7.5, 150 mM NaCl, 6 mM MgCl2, 1 mM DTT, 0.1% Tween-20, 0.2 mg/ml BSA; 25 C; 10 min per concentration, then washed
Details: tags: His6-TwinStrep-SUMO cleaved; N-terminal SNAP kept (SNAP-Surface 488); label: 3' end held by stalled T7 RNA polymerase

Binder	Kd [nM]
target 1 insC 3' of 12,insC 3' of 1 (mixed) RNA 1: CACCCGUGCAAAAAUGCAGGGGUCUAAAACUGAGCGGAUAACCUCUCUAUGG RNA 2: GGGAAUGGAUCCACAUCUACGAAUUCGUACCAUAGAGAGGCUUAUCCGCUCACCCGAGAUCGGAAGAGCACACGU	7.7 ± 0.5
target 1 C6U,A16C (mixed) RNA 1: CACCCGUGCAAAAAUGCAGGGGUCUAAAACUGAGCGGAUAACCUCUCUAUGG RNA 2: GGGAAUGGAUCCACAUCUACGAAUUCGUACCAUAGCGAGGUUAUCUGCUCACCGAGAUCGGAAGAGCACACGU	40 ± 5
target 1 U8G,C21U (mixed) RNA 1: CACCCGUGCAAAAAUGCAGGGGUCUAAAACUGAGCGGAUAACCUCUCUAUGG RNA 2: GGGAAUGGAUCCACAUCUACGAAUUCGUACUAUAGAGAGGUUAGCCGCUCACCGAGAUCGGAAGAGCACACGU	8.34 ± 0.26
target 1 insC 3' of 8,insA 3' of 4 (mixed) RNA 1: CACCCGUGCAAAAAUGCAGGGGUCUAAAACUGAGCGGAUAACCUCUCUAUGG RNA 2: GGGAAUGGAUCCACAUCUACGAAUUCGUACCAUAGAGAGGUUAUCCCGCAUCACCGAGAUCGGAAGAGCACACGU	12 ± 0.9
target 1 C4U,G12C (mixed) RNA 1: CACCCGUGCAAAAAUGCAGGGGUCUAAAACUGAGCGGAUAACCUCUCUAUGG RNA 2: GGGAAUGGAUCCACAUCUACGAAUUCGUACCAUAGAGAGCUUAUCCGUUCACCGAGAUCGGAAGAGCACACGU	22.4 ± 3.3
target 1 insA 3' of 11,insC 3' of 5 (mixed) RNA 1: CACCCGUGCAAAAAUGCAGGGGUCUAAAACUGAGCGGAUAACCUCUCUAUGG RNA 2: GGGAAUGGAUCCACAUCUACGAAUUCGUACCAUAGAGAGGUAUAUCCGCCUCACCGAGAUCGGAAGAGCACACGU	12.7 ± 1.2
target 1 C6G,U19A (mixed) RNA 1: CACCCGUGCAAAAAUGCAGGGGUCUAAAACUGAGCGGAUAACCUCUCUAUGG RNA 2: GGGAAUGGAUCCACAUCUACGAAUUCGUACCAAAGAGAGGUUAUCGGCUCACCGAGAUCGGAAGAGCACACGU	35 ± 5
target 1 insG 3' of 9,insU 3' of 5 (mixed) RNA 1: CACCCGUGCAAAAAUGCAGGGGUCUAAAACUGAGCGGAUAACCUCUCUAUGG RNA 2: GGGAAUGGAUCCACAUCUACGAAUUCGUACCAUAGAGAGGUUAGUCCGUCUCACCGAGAUCGGAAGAGCACACGU	14.4 ± 0.9
target 1 del22 (mixed) RNA 1: CACCCGUGCAAAAAUGCAGGGGUCUAAAACUGAGCGGAUAACCUCUCUAUGG RNA 2: GGGAAUGGAUCCACAUCUACGAAUUCGUACAUAGAGAGGUUAUCCGCUCACCGAGAUCGGAAGAGCACACGU	26.6 ± 1.7
target 1 insA 3' of 12,insU 3' of 5 (mixed) RNA 1: CACCCGUGCAAAAAUGCAGGGGUCUAAAACUGAGCGGAUAACCUCUCUAUGG RNA 2: GGGAAUGGAUCCACAUCUACGAAUUCGUACCAUAGAGAGGAUUAUCCGUCUCACCGAGAUCGGAAGAGCACACGU	35.4 ± 2.8
target 1 complement block 3-10 (mixed) RNA 1: CACCCGUGCAAAAAUGCAGGGGUCUAAAACUGAGCGGAUAACCUCUCUAUGG RNA 2: GGGAAUGGAUCCACAUCUACGAAUUCGUACCAUAGAGAGGUAUAGGCGACACCGAGAUCGGAAGAGCACACGU	12.2 ± 0.34
target 1 insA 3' of 12,insG 3' of 7 (mixed) RNA 1: CACCCGUGCAAAAAUGCAGGGGUCUAAAACUGAGCGGAUAACCUCUCUAUGG RNA 2: GGGAAUGGAUCCACAUCUACGAAUUCGUACCAUAGAGAGGAUUAUCGCGCUCACCGAGAUCGGAAGAGCACACGU	27.7 ± 2
target 1 U10G,G12C (mixed) RNA 1: CACCCGUGCAAAAAUGCAGGGGUCUAAAACUGAGCGGAUAACCUCUCUAUGG RNA 2: GGGAAUGGAUCCACAUCUACGAAUUCGUACCAUAGAGAGCUGAUCCGCUCACCGAGAUCGGAAGAGCACACGU	22.7 ± 1.3
target 1 C4A,G5U (mixed) RNA 1: CACCCGUGCAAAAAUGCAGGGGUCUAAAACUGAGCGGAUAACCUCUCUAUGG RNA 2: GGGAAUGGAUCCACAUCUACGAAUUCGUACCAUAGAGAGGUUAUCCUAUCACCGAGAUCGGAAGAGCACACGU	30.6 ± 2.4
target 1 insC 3' of 13,insA 3' of 5 (mixed) RNA 1: CACCCGUGCAAAAAUGCAGGGGUCUAAAACUGAGCGGAUAACCUCUCUAUGG RNA 2: GGGAAUGGAUCCACAUCUACGAAUUCGUACCAUAGAGAGCGUUAUCCGACUCACCGAGAUCGGAAGAGCACACGU	6.7 ± 1.3
target 1 insU 3' of 13,insA 3' of 11 (mixed) RNA 1: CACCCGUGCAAAAAUGCAGGGGUCUAAAACUGAGCGGAUAACCUCUCUAUGG RNA 2: GGGAAUGGAUCCACAUCUACGAAUUCGUACCAUAGAGAGUGUAUAUCCGCUCACCGAGAUCGGAAGAGCACACGU	12.3 ± 1.4
target 1 insC 3' of 18,insA 3' of 4 (mixed) RNA 1: CACCCGUGCAAAAAUGCAGGGGUCUAAAACUGAGCGGAUAACCUCUCUAUGG RNA 2: GGGAAUGGAUCCACAUCUACGAAUUCGUACCAUACGAGAGGUUAUCCGCAUCACCGAGAUCGGAAGAGCACACGU	38 ± 9
target 1 A9U,U10C (mixed) RNA 1: CACCCGUGCAAAAAUGCAGGGGUCUAAAACUGAGCGGAUAACCUCUCUAUGG RNA 2: GGGAAUGGAUCCACAUCUACGAAUUCGUACCAUAGAGAGGUCUUCCGCUCACCGAGAUCGGAAGAGCACACGU	8.6 ± 0.9
target 1 C6U,C7A (mixed) RNA 1: CACCCGUGCAAAAAUGCAGGGGUCUAAAACUGAGCGGAUAACCUCUCUAUGG RNA 2: GGGAAUGGAUCCACAUCUACGAAUUCGUACCAUAGAGAGGUUAUAUGCUCACCGAGAUCGGAAGAGCACACGU	8.6 ± 0.6
target 1 C6A,C21U (mixed) RNA 1: CACCCGUGCAAAAAUGCAGGGGUCUAAAACUGAGCGGAUAACCUCUCUAUGG RNA 2: GGGAAUGGAUCCACAUCUACGAAUUCGUACUAUAGAGAGGUUAUCAGCUCACCGAGAUCGGAAGAGCACACGU	6.48 ± 0.21
target 1 U8A,G12A (mixed) RNA 1: CACCCGUGCAAAAAUGCAGGGGUCUAAAACUGAGCGGAUAACCUCUCUAUGG RNA 2: GGGAAUGGAUCCACAUCUACGAAUUCGUACCAUAGAGAGAUUAACCGCUCACCGAGAUCGGAAGAGCACACGU	8.6 ± 0.8
target 1 insC 3' of 20,insC 3' of 12 (mixed) RNA 1: CACCCGUGCAAAAAUGCAGGGGUCUAAAACUGAGCGGAUAACCUCUCUAUGG RNA 2: GGGAAUGGAUCCACAUCUACGAAUUCGUACCACUAGAGAGGCUUAUCCGCUCACCGAGAUCGGAAGAGCACACGU	11.9 ± 2.4
target 1 C6G,A14G (mixed) RNA 1: CACCCGUGCAAAAAUGCAGGGGUCUAAAACUGAGCGGAUAACCUCUCUAUGG RNA 2: GGGAAUGGAUCCACAUCUACGAAUUCGUACCAUAGAGGGGUUAUCGGCUCACCGAGAUCGGAAGAGCACACGU	13.5 ± 1.3
target 1 insA 3' of 22,insC 3' of 16 (mixed) RNA 1: CACCCGUGCAAAAAUGCAGGGGUCUAAAACUGAGCGGAUAACCUCUCUAUGG RNA 2: GGGAAUGGAUCCACAUCUACGAAUUCGUACACAUAGACGAGGUUAUCCGCUCACCGAGAUCGGAAGAGCACACGU	~60
target 1 insC 3' of 22,insA 3' of 11 (mixed) RNA 1: CACCCGUGCAAAAAUGCAGGGGUCUAAAACUGAGCGGAUAACCUCUCUAUGG RNA 2: GGGAAUGGAUCCACAUCUACGAAUUCGUACCCAUAGAGAGGUAUAUCCGCUCACCGAGAUCGGAAGAGCACACGU	33 ± 5
target 1 insA 3' of 19,insU 3' of 7 (mixed) RNA 1: CACCCGUGCAAAAAUGCAGGGGUCUAAAACUGAGCGGAUAACCUCUCUAUGG RNA 2: GGGAAUGGAUCCACAUCUACGAAUUCGUACCAUAAGAGAGGUUAUCUCGCUCACCGAGAUCGGAAGAGCACACGU	41.8 ± 2.3
target 1 C2G,U8G (mixed) RNA 1: CACCCGUGCAAAAAUGCAGGGGUCUAAAACUGAGCGGAUAACCUCUCUAUGG RNA 2: GGGAAUGGAUCCACAUCUACGAAUUCGUACCAUAGAGAGGUUAGCCGCUGACCGAGAUCGGAAGAGCACACGU	17.4 ± 0.8
target 1 U11A,G13C (mixed) RNA 1: CACCCGUGCAAAAAUGCAGGGGUCUAAAACUGAGCGGAUAACCUCUCUAUGG RNA 2: GGGAAUGGAUCCACAUCUACGAAUUCGUACCAUAGAGACGAUAUCCGCUCACCGAGAUCGGAAGAGCACACGU	42 ± 7
